B1: Azoarcus group I ribozyme (parent)
chain: GUGCCUUGCGCCGGGAAACCACGCAAGGGAUGGUGUCAAAUUCGGCGAAACCUAAGCGCCCGCCCGGGCGUAUGGCAACGCCGAGCCAAGCUUCGGCGCCUGCGCCGAUGAAGGUGUAGAGACUAGACGGCACCCACCUAAGGCAAACGCUAUGGUGAAGGCAUAGUCCAGGGAGUGGCGAAAGUCACACAAACCGG

Variants of B1 are the subject of the data set. As to the kind of experiment: reverse-splicing fitness (ratio to wild type); higher = more active; in vitro selection; Mg2+ level not given. The method, boiled down: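 An in vitro group I ribozyme library with randomized positions was T7-transcribed and gel-purified. In triplicate, 10 pmol RNA in EPPS pH 7.5 was reacted with 50 pmoles of a 30-nt RNA substrate for 1 h at 37 °C across several added MgCl2 levels (1–48 mM), then stopped with EDTA. Products were reverse transcribed from a substrate-complementary primer, PCR-amplified and sequenced (HiSeq 4000). Fitness is a variant's read proportion after selection over that before, normalised to wild type.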
Turning to GUGCCUUGCGCCGGGAAACCACGCAAGGGAUGGUGUCAAAUUCGGCGAAACCUAAGCGCCCGCCCGGGCGUAUGGCAACGCAGAGCCAAGCUUCGGCGCCUGCGCCGAUGCAGGUGUAGCGACUAGACGGCACCCACCUAAGGCCAACGUUAUGGUGAAGGCAUAGUCCAGGGAGAGGCGAAAGUCACACAAACCGG, the reverse-splicing fitness came to 0.00941.
Consider GUGCCUUGCGCCGGGAAACCACGCAAGGGAUGGUGUCAAAUUCGGCGAAACCUAAGCGCCCGCCCGGGCGUAUGGCAACGCGGAGCCAAGCUUCGGCGCCUGCGCCGAUGCAGGUGUAGUGACUAGACGGCACCCACCUAAGGCUAACGCUAUGGUGAAGGCAUAGUCGAGGGAGCGGCGAAAGUCACACAAACCGG, for which the reverse-splicing fitness amounted to 0.00239.
Consider GUGCCUUGCGCCGGGAAACCACGCAAGGGAUGGUGUCAAAUUCGGCGAAACCUAAGCGCCCGCCCGGGCGUAUGGCAACGCUGAGCCAAGCUUCGGCGCCUGCGCCGAUGUAGGUGUAGAGACUAGACGGCACCCACCUAAGGCCAACGUUAUGGUGAAGGCAUAGUCAAGGGAGGGGCGAAAGUCACACAAACCGG, for which the reverse-splicing fitness amounted to 0.00651.
The value for GUGCCUUGCGCCGGGAAACCACGCAAGGGAUGGUGUCAAAUUCGGCGAAACCUAAGCGCCCGCCCGGGCGUAUGGCAACGCCGAGCCAAGCUUCGGCGCCUGCGCCGAUGAAGGUGUAGAGACUAGACGGCACCCACCUAAGGCUAACGGUAUGGUGAAGGCAUAGUCAAGGGAGCGGCGAAAGUCACACAAACCGG was 0.0151; that for GUGCCUUGCGCCGGGAAACCACGCAAGGGAUGGUGUCAAAUUCGGCGAAACCUAAGCGCCCGCCCGGGCGUAUGGCAACGCAGAGCCAAGCUUCGGCGCCUGCGCCGAUGUAGGUGUAGCGACUAGACGGCACCCACCUAAGGCAAACGGUAUGGUGAAGGCAUAGUCGAGGGAGCGGCGAAAGUCACACAAACCGG was 0.00529.
The value for GUGCCUUGCGCCGGGAAACCACGCAAGGGAUGGUGUCAAAUUCGGCGAAACCUAAGCGCCCGCCCGGGCGUAUGGCAACGCAGAGCCAAGCUUCGGCGCCUGCGCCGAUGAAGGUGUAGCGACUAGACGGCACCCACCUAAGGCUAACGCUAUGGUGAAGGCAUAGUCCAGGGAGUGGCGAAAGUCACACAAACCGG was 0.135; that for GUGCCUUGCGCCGGGAAACCACGCAAGGGAUGGUGUCAAAUUCGGCGAAACCUAAGCGCCCGCCCGGGCGUAUGGCAACGCGGAGCCAAGCUUCGGCGCCUGCGCCGAUGGAGGUGUAGUGACUAGACGGCACCCACCUAAGGCGAACGAUAUGGUGAAGGCAUAGUCUAGGGAGGGGCGAAAGUCACACAAACCGG was 0.00259; that for GUGCCUUGCGCCGGGAAACCACGCAAGGGAUGGUGUCAAAUUCGGCGAAACCUAAGCGCCCGCCCGGGCGUAUGGCAACGCUGAGCCAAGCUUCGGCGCCUGCGCCGAUGAAGGUGUAGUGACUAGACGGCACCCACCUAAGGCUAACGGUAUGGUGAAGGCAUAGUCCAGGGAGCGGCGAAAGUCACACAAACCGG was 0.0104.
In the case of GUGCCUUGCGCCGGGAAACCACGCAAGGGAUGGUGUCAAAUUCGGCGAAACCUAAGCGCCCGCCCGGGCGUAUGGCAACGCAGAGCCAAGCUUCGGCGCCUGCGCCGAUGCAGGUGUAGUGACUAGACGGCACCCACCUAAGGCAAACGGUAUGGUGAAGGCAUAGUCCAGGGAGAGGCGAAAGUCACACAAACCGG, the reverse-splicing fitness is 0.00392.
In the case of GUGCCUUGCGCCGGGAAACCACGCAAGGGAUGGUGUCAAAUUCGGCGAAACCUAAGCGCCCGCCCGGGCGUAUGGCAACGCGGAGCCAAGCUUCGGCGCCUGCGCCGAUGAAGGUGUAGCGACUAGACGGCACCCACCUAAGGCGAACGGUAUGGUGAAGGCAUAGUCUAGGGAGAGGCGAAAGUCACACAAACCGG, the reverse-splicing fitness came to 0.0128.
Regarding GUGCCUUGCGCCGGGAAACCACGCAAGGGAUGGUGUCAAAUUCGGCGAAACCUAAGCGCCCGCCCGGGCGUAUGGCAACGCCGAGCCAAGCUUCGGCGCCUGCGCCGAUGAAGGUGUAGGGACUAGACGGCACCCACCUAAGGCCAACGUUAUGGUGAAGGCAUAGUCAAGGGAGUGGCGAAAGUCACACAAACCGG, the reverse-splicing fitness stood at 0.123.
With GUGCCUUGCGCCGGGAAACCACGCAAGGGAUGGUGUCAAAUUCGGCGAAACCUAAGCGCCCGCCCGGGCGUAUGGCAACGCAGAGCCAAGCUUCGGCGCCUGCGCCGAUGCAGGUGUAGUGACUAGACGGCACCCACCUAAGGCGAACGUUAUGGUGAAGGCAUAGUCCAGGGAGAGGCGAAAGUCACACAAACCGG, the reverse-splicing fitness came out at 0.00986.
To GUGCCUUGCGCCGGGAAACCACGCAAGGGAUGGUGUCAAAUUCGGCGAAACCUAAGCGCCCGCCCGGGCGUAUGGCAACGCGGAGCCAAGCUUCGGCGCCUGCGCCGAUGUAGGUGUAGUGACUAGACGGCACCCACCUAAGGCUAACGUUAUGGUGAAGGCAUAGUCAAGGGAGCGGCGAAAGUCACACAAACCGG belongs 0.0027; to GUGCCUUGCGCCGGGAAACCACGCAAGGGAUGGUGUCAAAUUCGGCGAAACCUAAGCGCCCGCCCGGGCGUAUGGCAACGCCGAGCCAAGCUUCGGCGCCUGCGCCGAUGAAGGUGUAGUGACUAGACGGCACCCACCUAAGGCCAACGAUAUGGUGAAGGCAUAGUCAAGGGAGGGGCGAAAGUCACACAAACCGG, 0.00203.
The value for GUGCCUUGCGCCGGGAAACCACGCAAGGGAUGGUGUCAAAUUCGGCGAAACCUAAGCGCCCGCCCGGGCGUAUGGCAACGCAGAGCCAAGCUUCGGCGCCUGCGCCGAUGGAGGUGUAGCGACUAGACGGCACCCACCUAAGGCCAACGGUAUGGUGAAGGCAUAGUCAAGGGAGCGGCGAAAGUCACACAAACCGG was 0.0108.
